# Source: the RNAGym collection of RNA variant scans (doi:10.1073/pnas.2313332121)
# B1: TPR t1 (parent)
# chain: GACCAAUCUGCCCUCAGAGCUCGAGAACAUCUUCGGAUGCAGAGGAGGCAGGCUUCGGUGGCGCGAUAGCGCCAACGUCCUCAACCUCCAAUGCAUCCCACCACAUGAUGAUGCCUGAAGAGCCUUGGUUUUUUG
# Variants of: B1
# Assay: polymerase ribozyme fitness, log enrichment relative to wild type (log ratio); higher = more active; in vitro selection for triplet polymerase activity
# In short: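 Frozen incubation at −7 °C formed the core of a single, triplicate in vitro selection round applied to PCR-built, transcribed mutant libraries of each subunit of a heterodimeric triplet polymerase ribozyme. Extended constructs were gel-excised, captured with streptavidin beads and amplified by RT-PCR, and input and output libraries were Illumina-sequenced with a filter of ≥10 input reads and ≥1 read per output. Fitness is the logarithm of genotype enrichment relative to wild-type enrichment, with inverse-variance-weighted replicate averaging, and the logarithm is base 2.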
row,Variant,polymerase ribozyme fitness (log ratio)
1,A6G A29U A37G C56U C62G U87G A105C G117C,-5.41
2,A5U C56G C70A,-3.29
3,A5U G71A,-1.5
4,A6C C8A U32C A84U A90G G110C C114U,-5.68
5,A6C G35U G39A G61U A74C C86U C101A C115U,-6.88
6,A5U G39A G60U C70U,-2.4
7,A6C A50C C70A G127U,-4.88
8,A5U C13G G63A C89U U92A G120A,-5.85
9,A6C G57C,-0.375
10,A5U G44C C70U A84C C104A G117C,-7.15
11,A6C C13G G69A,-3.82
12,A5G G42U C80A,-5.11
13,A5U U7A C15U C76A,-1.76
14,A6C A29U C49A A66C G71C A119U,-4.4
15,A6C C40A C70G,-5.35
16,A5G G113A,-0.636
17,A5U U7G A43U G71U A83C,-2.36
18,A5G C82G C97A C124A U125G,-4.89
19,A5U C73G C94G,-2.07
20,A6C G36C,-1.4
21,A5U C64U G117A,-2.55

row,Variant,polymerase ribozyme fitness (log ratio)
1,A5U C22G,-3.43
2,A5U G69U G110A,-0.583
3,A5U A46U C73A A90U C123A,-1.41
4,A5U A46U U81A,-2.98
5,A6C U7C C56U A91G U106G G120U,-4.11
6,A5U A46U G71C U81A,-4.5
7,A5U C15U G48A C70A,-3.43
8,A5U U21C C72G C97U,-1.7
9,A6C G47U C124A,-1.59
10,A6C U30G A43C C88U C97G U109G,-6.22
11,A5U A37C G113U,-3.79
12,A5U G113A G122A G127C,-3.33
13,A5U A43G C124A,-0.815
14,A5U C64U C85G C86U U109A C124G U133G,-6.39
15,A5U C12G G58C A90U C124G G128A,-2.47
16,A6C U32A C64U A111G,-4.1
17,A5G G61A C94A,-0.707
18,A5U A50U G61U C88G,-1
19,A5U C49G C70A,-3.06
20,A5U C49G C70G,-4.62
21,A6G A43G G57U C73U U81A,-3.53

row,Variant,polymerase ribozyme fitness (log ratio)
1,A6C G69U C72U,-0.0767
2,A5G G36U G48A G61C G122U C123U,-1.93
3,A6C U9G G77C A105G U126A,-4.13
4,A5U C13U G47A G63U A91U U109C G127C,-6.28
5,A5U C70G U106A C114U,-5.21
6,A6C A18U A50C G77U U87A,-3.65
7,A6G A43G G69U,-0.0956
8,A5U A6G A46C C115G,-2.4
9,A5U G110C,-3.71
10,A5U U7A A91G C114A,-1.75
11,A5U U7C C8U C11U C86A,-1.5
12,A5U A91U,-3.29
13,A5U G63U U133A,-2.34
14,A5U A6C G57U C123U,0.75
15,A5U C56U,-0.648
16,A5U C56G,-1.04
17,A5G U106A,0.687
18,A5G G61A U78A A84C U129A,-1.36
19,A5U A27G G44U A118U,-4.64
20,A6C G47C G71U,-2.53
21,A5U G39A C73A U78C,-0.828

row,Variant,polymerase ribozyme fitness (log ratio)
1,A6C U109C G110U C114U,-6.23
2,A5U C11A G63U G93U,-3.79
3,A5U C8U C40U C123A,1.55
4,A6C U21G G39U C72G C85A C124U G128A U133A,-3.4
5,A5U A119G,0.901
6,A5U G113U C124A,-3.25
7,A5U C89G,-1.4
8,A6G A43G,-2.57
9,A5U C28U G69A C124U U133G,-4.96
10,A6C C72U A105C U131C,-2.59
11,A6C C72U A91G A121U G128C,-0.723
12,A5U C62G A90G C123U,-0.143
13,A6C C98A,-4.73
14,A6C A27C G110C U130C,-6.2
15,A5U A6U C20U G69A U81A G113A,-2.02
16,A6C C72U G120U U133A,-0.162
17,A6C C15G A46C G107U G117C,-4.61
18,A5G C88A G107A C114U,-3.65
19,A6C C8A A66U C85U,-1.77
20,A6C G48C C72U U106A,-1.51
21,A5U U21C C97U,-1.38
